According to PMC5794963, “Link between the causative genes of holoprosencephaly: Zic2 directly regulates Tgif1 expression”:

How the values were obtained:
F-HA-Zic2 [1] = biological target: T1, F-HA-Zic2 (UniProt Q62520 1-530); experiment: competition; against N1; shifted bands disappear completely; Footprinting: 20 mM Tris-HCl pH 8.0, 3 mM MgCl2, 5 mM CaCl2, 100 mM NaCl, 100 mM DTT, 0.1 mM EDTA, 50 ug/ml BSA, 25 C, 30 min; EMSA conditions as in earlier work; settings: protein: recombinant; tags: N-terminal FLAG-HA; label: none
F-HA-Zic2 [2] = biological target: T1, F-HA-Zic2; experiment: competition; against N8; inhibits complex formation; Footprinting: 20 mM Tris-HCl pH 8.0, 3 mM MgCl2, 5 mM CaCl2, 100 mM NaCl, 100 mM DTT, 0.1 mM EDTA, 50 ug/ml BSA, 25 C, 30 min; EMSA conditions as in earlier work; settings: protein: recombinant; tags: N-terminal FLAG-HA; label: none
GLI3-ZF-CH6 (GLI3 ZFD) = GLI3-ZF-CH6 (GLI3 ZFD) (UniProt P10071 480-632); experiment: EMSA; preferred over ZBS core; Footprinting: 20 mM Tris-HCl pH 8.0, 3 mM MgCl2, 5 mM CaCl2, 100 mM NaCl, 100 mM DTT, 0.1 mM EDTA, 50 ug/ml BSA, 25 C, 30 min; EMSA conditions as in earlier work; settings: protein: recombinant; blunt
F-HA-Zic2 [3] = biological target: T1, F-HA-Zic2; experiment: EMSA; even at 3-fold excess over ZBS core; Footprinting: 20 mM Tris-HCl pH 8.0, 3 mM MgCl2, 5 mM CaCl2, 100 mM NaCl, 100 mM DTT, 0.1 mM EDTA, 50 ug/ml BSA, 25 C, 30 min; EMSA conditions as in earlier work; settings: protein: recombinant; tags: N-terminal FLAG-HA; blunt
F-HA-Zic2 [4] = biological target: T1, F-HA-Zic2; experiment: competition; against N9; inhibits complex formation; Footprinting: 20 mM Tris-HCl pH 8.0, 3 mM MgCl2, 5 mM CaCl2, 100 mM NaCl, 100 mM DTT, 0.1 mM EDTA, 50 ug/ml BSA, 25 C, 30 min; EMSA conditions as in earlier work; settings: protein: recombinant; tags: N-terminal FLAG-HA; label: none

T1 sequence (Q62520 whole entry): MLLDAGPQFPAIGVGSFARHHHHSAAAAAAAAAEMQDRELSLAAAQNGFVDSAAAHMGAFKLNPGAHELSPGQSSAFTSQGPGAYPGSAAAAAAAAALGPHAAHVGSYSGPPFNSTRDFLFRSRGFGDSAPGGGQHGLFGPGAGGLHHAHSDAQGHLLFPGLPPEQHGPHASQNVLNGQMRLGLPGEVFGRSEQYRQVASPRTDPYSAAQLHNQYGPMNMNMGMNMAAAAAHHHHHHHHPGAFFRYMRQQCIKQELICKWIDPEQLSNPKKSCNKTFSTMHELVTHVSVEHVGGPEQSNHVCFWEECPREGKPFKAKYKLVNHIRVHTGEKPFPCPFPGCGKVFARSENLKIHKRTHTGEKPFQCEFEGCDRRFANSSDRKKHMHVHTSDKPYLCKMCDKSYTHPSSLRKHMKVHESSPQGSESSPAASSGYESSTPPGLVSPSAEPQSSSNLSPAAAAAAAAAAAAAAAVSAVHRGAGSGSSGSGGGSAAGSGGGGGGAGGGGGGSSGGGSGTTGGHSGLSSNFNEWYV
GLI3-ZF-CH6 (GLI3 ZFD), sequence (P10071 480-632): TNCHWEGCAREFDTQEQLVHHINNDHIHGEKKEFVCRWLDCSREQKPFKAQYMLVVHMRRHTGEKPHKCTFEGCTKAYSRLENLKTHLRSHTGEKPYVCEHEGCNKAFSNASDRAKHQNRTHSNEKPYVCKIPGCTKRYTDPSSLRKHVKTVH

B1: cp4 (-1728 to -1709) (dsDNA)
DNA 1: CCCGCACCACATGAGTCCCG
DNA 2: CGGGACTCATGTGGTGCGGG
B1: binds (F-HA-Zic2 [1]).

B2: cp8 (-1688 to -1669) (dsDNA)
DNA 1: GTCATCCCCTGCCGGGTCCC
DNA 2: GGGACCCGGCAGGGGATGAC
B2: binds (F-HA-Zic2 [2]).

B3: GBS probe (dsDNA)
DNA 1: CGTCTTGGGTGGTCTCCCTC
DNA 2: GAGGGAGACCACCCAAGACG
B3: binds (GLI3-ZF-CH6 (GLI3 ZFD)); no binding (F-HA-Zic2 [3]).

B4: cp11 (-1830 to -1811) (dsDNA)
DNA 1: CCCGAGTCCCCGGCGGATGT
DNA 2: ACATCCGCCGGGGACTCGGG
B4: binds (F-HA-Zic2 [4]).
